Experimental data: PMC2660596

Target: Bacillus thuringiensis Cry11Ba toxin (Bacillus thuringiensis) (UniProt Q45730)
Assay: ELISA

APN2t, truncated 70-kDa AgAPN2 peptide (residues 228 to 843) (domain or fragment)
Kd: 6.4 nM
